Measured values as given in patent US20070020258A1.

Legend:
[1] = biological target: FcεRII (CD23) on IM9 B cells (human) (UniProt P06734); assay: FACS, IM9 cells, 0.1 ug/ml
[2] = biological target: FcεRII (CD23) on IM9 B cells (human) (UniProt P06734); assay: FACS, IM9 cells, 10 ug/ml
[3] = biological target: FcεRI alpha chain on CHO 3D10 cells (UniProt P12319); assay: FACS, CHO 3D10 cells, 0.1 ug/ml
[4] = biological target: FcεRI alpha chain on CHO 3D10 cells (UniProt P12319); assay: FACS, CHO 3D10 cells, 0.5 ug/ml
[5] = biological target: FcεRII (CD23) on IM9 B cells (human) (UniProt P06734); assay: FACS, IM9 cells, 5 ug/ml
[6] = biological target: FcεRI alpha chain on CHO 3D10 cells (UniProt P12319); assay: FACS, CHO 3D10 cells, 5 ug/ml
[7] = biological target: FcεRI alpha chain on CHO 3D10 cells (UniProt P12319); assay: FACS, CHO 3D10 cells, 10 ug/ml

Chain of FcεRII (CD23) on IM9 B cells (human) (P06734 whole entry): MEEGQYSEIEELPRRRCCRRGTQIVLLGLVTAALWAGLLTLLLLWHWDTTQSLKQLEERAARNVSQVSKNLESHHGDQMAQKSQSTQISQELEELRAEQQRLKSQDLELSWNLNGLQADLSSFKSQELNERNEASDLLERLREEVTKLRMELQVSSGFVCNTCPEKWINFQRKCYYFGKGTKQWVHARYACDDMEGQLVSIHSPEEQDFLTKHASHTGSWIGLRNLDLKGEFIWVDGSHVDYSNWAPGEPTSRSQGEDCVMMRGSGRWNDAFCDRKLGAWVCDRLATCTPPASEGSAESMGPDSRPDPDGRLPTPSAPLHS
Chain of FcεRI alpha chain on CHO 3D10 cells (P12319 26-257 limits assumed): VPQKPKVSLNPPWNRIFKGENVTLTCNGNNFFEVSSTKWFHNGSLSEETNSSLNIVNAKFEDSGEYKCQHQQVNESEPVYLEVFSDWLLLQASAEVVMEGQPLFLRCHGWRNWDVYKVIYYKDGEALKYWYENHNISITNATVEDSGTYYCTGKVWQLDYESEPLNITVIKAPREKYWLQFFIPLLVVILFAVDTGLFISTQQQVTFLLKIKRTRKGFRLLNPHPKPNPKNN

human IgE purified from U266B1 cells (from UniProt P01854 1-428) (antibody)
% IM9 (+) [1]: 1.7% | % IM9 (+) [2]: 92.5% | % CHO 3D10(+) [3]: 15.8% | % CHO 3D10(+) [4]: 59.6% | % IM9 (+) [5]: 82.6% | % CHO 3D10(+) [6]: 89.9% | % CHO 3D10(+) [7]: 90.3%
